Data on seven molecules can be found in US20190153103A1 (AbbVie / Abbott, published 2019).

Read-outs that look alike come from different tables or passages of the source. Bounds are passed on as bounds.

The term Kd denotes a measure of binding affinity in units of concentration. Broadly, the % inhibition is the relative decrease from the control value, in per cent.

The target in test [1] is T1, Cyno-his (cynomolgus).
T1 construct: extracellular domain; soluble analyte of the Biacore runs; also called cSCRx91-his; cBMPR1B-CHis
Nature of the test: Biacore.

Test [2] has as its target T2, rat-his.
T2 construct: soluble analyte of the Biacore runs; also called rSCRx91-his; rBMPR1B-CHis
T2 chain: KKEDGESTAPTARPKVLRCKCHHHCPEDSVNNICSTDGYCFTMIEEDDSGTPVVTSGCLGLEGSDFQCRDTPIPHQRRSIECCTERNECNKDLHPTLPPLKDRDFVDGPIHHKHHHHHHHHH
Nature of the test: Biacore. Background: Surface plasmon resonance follows binding to a sensor surface in real time, without labels.

Test [3] addresses T3, hBMPR1B-His (human BMPR1B extracellular domain, residues K14 to R126, with C-terminal 9x-Histidine tag) (human, UniProt O00238 14-126).
T3 construct: Residues K14-R126 are counted on the hBMPR1B ORF (NM_001203); The IgK signal peptide of the vector is left out; also called hBMPR1B-CHis; human BMPR1B-his
T3 sequence: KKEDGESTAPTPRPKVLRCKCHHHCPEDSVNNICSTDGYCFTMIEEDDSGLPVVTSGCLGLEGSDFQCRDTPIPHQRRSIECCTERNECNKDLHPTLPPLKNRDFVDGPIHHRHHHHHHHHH
Nature of the test: Biacore.

Test [4] deals with T4, human BMPR1B overexpressed on the surface of HEK293T cells (N-terminal Asp-Lys epitope tag, … (human, UniProt O00238 14-502)).
T4 construct: also called HEK293T cells overexpressing hBMPR1B; BMPR1B-expressing HEK293T cells
Nature of the test: flow cytometry. Background: A flow cytometer gives signals particle by particle.

Test [5] addresses T5, rat BMPR1B overexpressed on the surface of HEK293T cells (N-terminal Asp-Lys epitope tag, … (rat, UniProt A0A8I6A0G0 62-550)).
T5 construct: whole, on cells
Nature of the test: flow cytometry.

Test [6] addresses T6, cynomolgus BMPR1B overexpressed on the surface of HEK293T cells (N-terminal Asp-Lys epitope tag, … (cynomolgus)).
T6 construct: whole, on cells
The test is described as follows: flow cytometry.

Test [7] has as its target T4, human BMPR1B overexpressed on the …. The test is described as follows: cell-based or functional assay.
The target of test [8] is T5, rat BMPR1B overexpressed on the surface …. The test is described as follows: cell-based or functional assay.
Test [9] addresses T6, cynomolgus BMPR1B overexpressed on the …. The test is described as follows: cell-based or functional assay.
For test [10], the target named is T7, human BMPR1B coated on MSD plates (construct not stated) (human, UniProt O00238 14-126, limits assumed).
T7 construct: also called BMPR1B receptor
T7 sequence: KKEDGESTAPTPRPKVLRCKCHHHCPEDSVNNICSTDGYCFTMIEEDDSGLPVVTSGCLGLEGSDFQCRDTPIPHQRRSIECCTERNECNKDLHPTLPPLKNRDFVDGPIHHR
The test is described as follows: MSD ELISA, BMP2 blocked. Further details: concentration or dose not given beside the values. Background: In an ELISA, binding on a coated surface is turned into a signal by an enzyme label.

Test [11] addresses T7, human BMPR1B coated on MSD plates …. Nature of the test: MSD ELISA, BMP4 blocked. The arrangement: concentration or dose not given beside the values.
Test [12] addresses T3, hBMPR1B-His (human BMPR1B extracellular …). The test is described as follows: ELISA.
Test [13] has as its target T8, BMPR1A-Fc (recombinant protein used in the screen 1 ELISA) (human, UniProt P36894 24-152, limits assumed).
T8 construct: also called human BMPR1A; not shown: Fc
The test is described as follows: ELISA.

The target of test [14] is T9, irrelevant Fc-tagged protein.
T9 construct: ELISA control; also called irrelevant Fc construct
Nature of the test: ELISA.

The target in test [15] is T10, hBMPR1B-Fc (human BMPR1B extracellular domain, residues K14 to R126, fused to human IgG2 Fc) (human, UniProt O00238 14-126).
T10 construct: also called BMPR1B fused to human Fc fragment; not shown: human IgG2 Fc protein
T10 sequence: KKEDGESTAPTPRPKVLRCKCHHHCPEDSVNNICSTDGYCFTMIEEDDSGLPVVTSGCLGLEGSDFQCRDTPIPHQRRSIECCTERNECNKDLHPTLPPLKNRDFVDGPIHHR
Nature of the test: ELISA.

The target in test [16] is T1, Cyno-his. Nature of the test: Biacore. The source holds these as a separate data set.
The target of test [17] is T2, rat-his. The test is described as follows: Biacore.
Test [18] concerns the target T3, hBMPR1B-His (human BMPR1B extracellular …). The test is described as follows: Biacore. The source holds these as a separate data set.
The target of test [19] is T4, human BMPR1B overexpressed on the …. Nature of the test: flow cytometry. This is another data set of the same source.
The target in test [20] is T5, rat BMPR1B overexpressed on the surface …. The test is described as follows: flow cytometry. The source holds these as a separate data set.
Test [21] addresses T4, human BMPR1B overexpressed on the …. Nature of the test: cell-based or functional assay. This is another data set of the same source.
The target of test [22] is T5, rat BMPR1B overexpressed on the surface …. The test is described as follows: cell-based or functional assay. The source holds these as a separate data set.

T8 sequence (P36894 24-152 limits assumed): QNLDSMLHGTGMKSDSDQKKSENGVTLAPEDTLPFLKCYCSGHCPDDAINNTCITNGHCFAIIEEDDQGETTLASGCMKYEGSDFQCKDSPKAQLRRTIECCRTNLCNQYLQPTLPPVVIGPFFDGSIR

B1: SC91.138 (antibody, V domains shown)
VH: QVQLQQPGAELVMPGASVKLSCKASGYTFTNYWMHWVKQRPGQGLEWIGEIDPSDVYTTYNQKFKDKATLTVDKSSSTAYMQLINLTSEDSAVYYCARSGWDYFDYWGQGTALTVSS
VL: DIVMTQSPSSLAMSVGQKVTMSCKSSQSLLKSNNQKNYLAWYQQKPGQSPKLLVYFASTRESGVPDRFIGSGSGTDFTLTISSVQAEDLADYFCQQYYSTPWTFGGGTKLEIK
Consider B1, for which the Kd in test [1] stood at 0.937 nM; in test [2], 1.84 nM; in test [3], 0.658 nM. For the same molecule, the results for the gMFI in test [4], in [5] and in [6] were 24500, 9660 and 16000, respectively. The “% live, Fab-saporin, 250pM” value in test [7] worked out at 21%; in test [8] it was 37.3%; in [9], 17.6%. The results for the “% inhibition” value in test [10] and in test [11] were 10% and 79%, respectively.

B2: SC91.15 (murine anti-BMPR1B antibody) (antibody, V domains shown)
VH: QVQLQQPGAELVMPGASVKLSCKASGYTLTNYWMHWVKQRPGQGLEWIGDIDPSDTYTNYNHKFKGKATLTVDKSSSTAYMQLSSLTSEDSAVYYCARSGWDYFDSWGQGTTLTVSS
VL: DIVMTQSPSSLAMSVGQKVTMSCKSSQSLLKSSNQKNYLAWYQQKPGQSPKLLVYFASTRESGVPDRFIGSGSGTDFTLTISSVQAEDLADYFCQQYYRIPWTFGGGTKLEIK
notes: Murine hybridoma antibody
B2: the ELISA in test [12] is 1.19; in test [13], 0.055; in [14], 0.05; in test [15], 0.829. Also, the Kd in test [16] amounted to 0.947 nM; in test [17] it was 1.5 nM; in test [18], 0.922 nM. The “Flow cytometry MFI” value was 5610 in test [19] and 4590 in test [20]. In addition, the figures for the “% live, Fab-saporin, 100pM” value in test [21] and in test [22] were 11.9% and 18.5%, respectively. Moreover, the “% inhibition” value came to 11% in [10] and 92% in test [11].

B3: SC91.146 (antibody, V domains shown)
VH: QVQLQQPGAELVKPGASVKLSCKASGYTFTSYWMHWVKQRPGQGLEWIGDIDPSDRYTNYNQKFKGKATLTVDTTSSTAYMQLSSLTSEDSAVYYCAISGWDYFDYWGQGTTLTVSS
VL: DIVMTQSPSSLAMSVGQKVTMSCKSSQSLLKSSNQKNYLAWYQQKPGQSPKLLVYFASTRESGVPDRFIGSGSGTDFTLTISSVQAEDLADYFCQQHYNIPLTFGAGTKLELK
For B3, the figures for the Kd in test [1], in test [2] and in [3] were less than 0.1 nM, less than 2 nM and 1.21 nM, respectively. The gMFI in test [4] was 15800; in test [5], 6220; in test [6], 10900. Moreover, the “% live, Fab-saporin, 250pM” value was found to be 20.5% in test [7], 38.8% in test [8] and 25.4% in test [9]. Moreover, the “% inhibition” value in test [10] turned out to be 29%; in test [11], 79%.

B4: SC91.9 (murine anti-BMPR1B antibody) (antibody, V domains shown)
VH: QVQLQQPGAELVKPGASVKLSCKASGYTFISYWMHWVKQRPGQGLEWIGMIHPNSGSTNYNESFKSKATLTVDKSSSTAYMQLSSLTSEDSAVYYCARDLLIATVVVTPYFAYWGQGTILTVSS
VL: DIQMTQTTSSLSASLGDRVTISCRASQDISNFLNWYQQKPDGTIKFLIYYTSRLHSGVPSRFSGSGSGTDYSLTIRNLEQEDIATYFCQQGNTLPYTFGGGTKLEIK
notes: Murine hybridoma antibody
Turning to B4, the ELISA turned out to be 1.41 in test [12], 0.056 in test [13], 0.042 in [14] and 0.551 in [15]. For the same molecule, the Kd in test [16] worked out at 0.153 nM; in test [17], 0.181 nM; in [18] it was 0.322 nM. For the same molecule, the “Flow cytometry MFI” value is 5480 in [19] and 5270 in [20]. The “% live, Fab-saporin, 100pM” value in test [21] came to 9.44%; in test [22] it was 14.7%. Also, the entries for the “% inhibition” value in [10] and in test [11] were 50% and 93%, respectively.

B5: SC91.1 (murine anti-BMPR1B antibody) (antibody, V domains shown)
VH: QVQLQQPGAELVKPGASVKLSCKASGYTFTSYWMQWVKQRPGQGLEWIGEIDPSDNYTLYNQKFKGKATLTVDTSSSTAYMQLSSLTSEDSAVYYCARFGYYVDYWGLGTTLTVSS
VL: DVVMTQTPLSLPVSLGDQASIFCRSSQSLVHSTGNTYLHWYLQKPGQSPKLLIYKVSNRFSGVPDRFSGSGSGTDFTLKISRVEAEDLGVYFCSQSTHVPFTFGSGTKLEIK
notes: Murine hybridoma antibody with a kappa light chain
Turning to B5, the ELISA was determined as 1.17 in [12], 0.031 in [13], 0.039 in test [14] and 0.483 in test [15]. For the same molecule, the Kd turned out to be 5.1 nM in test [16], 3.34 nM in [17] and 2.34 nM in [18]. Further, the “Flow cytometry MFI” value in [19] turned out to be 5520; in [20], 5080. Also, the “% live, Fab-saporin, 100pM” value in [21] came to 9.53%; in [22], 15.6%. In addition, the figures for the “% inhibition” value in test [10] and in test [11] were 38% and 75%, respectively.

B6: SC91.20 (antibody, V domains shown)
VH: QVQLQQPGAEVVRPGASLKLSCKASGYTFTSYWMQWIKQRPGQGLEWIGEIDPSDNYTMYNQKFKGKATLTVDTSSSTAYMQLSSLTSEDSAVYFCARFGFYVDYWGQGTTLTVSS
VL: DVVMTQTPLSLPVSLGDQASISCRSSQSLVHSTGNTYLHWYLQKPGQSPNLLIYKVSNRFSGVPDRFSGSGSGTDFTLKISRVEAEDLGVYFCSQSTHVPFTFGSGTKLEIK
With B6, the ELISA in [12] was 1.01; in [13], 0.116; in [14], 0.041; in test [15] it was 0.462. Further, the Kd was 2.3 nM in test [16], 1.91 nM in test [17] and 0.934 nM in test [18]. In addition, the “Flow cytometry MFI” value was 7480 in test [19] and 5940 in test [20]. Besides, the “% live, Fab-saporin, 100pM” value is 10.4% in [21] and 18.2% in test [22].

B7: SC91.27 (murine anti-BMPR1B antibody) (antibody, V domains shown)
VH: QVQLQQPGAEVVKPGASVKLSCKASGYTFTNYWMQWVKQRPGQGLEWIGEIDPSDRYTMYNQKFKGKATLIVDTSSSTAYMQLSSLTSEDSAVYFCARFGYYVDYWGQGTTLTVSS
VL: DVVMTQTPLSLPVSLGDQASISCRSSQSLVHSTGNTYLHWYLQKPGQSPNLLIYKVSNRFSGVPDRFSGSGSGTDFTLKISRVEAEDLGVYFCSQSTHVPFTFGSGTKLEIK
notes: Murine hybridoma antibody with the same VL as SC91.20
For B7, the ELISA in test [12] amounted to 0.855; in test [13], 0.043; in test [14], 0.042; in test [15], 0.417. The Kd in [16] is 2.56 nM; in test [17], 2.14 nM; in test [18] it was 1.98 nM. Further, the “Flow cytometry MFI” value came to 6880 in [19] and 5970 in test [20]. The “% live, Fab-saporin, 100pM” value worked out at 11.9% in test [21] and 17.9% in [22].
